T1: human DLL1 (human, UniProt O00548 18-545, limits assumed)
T1 construct: also called hDLL1
T1 sequence (looked up): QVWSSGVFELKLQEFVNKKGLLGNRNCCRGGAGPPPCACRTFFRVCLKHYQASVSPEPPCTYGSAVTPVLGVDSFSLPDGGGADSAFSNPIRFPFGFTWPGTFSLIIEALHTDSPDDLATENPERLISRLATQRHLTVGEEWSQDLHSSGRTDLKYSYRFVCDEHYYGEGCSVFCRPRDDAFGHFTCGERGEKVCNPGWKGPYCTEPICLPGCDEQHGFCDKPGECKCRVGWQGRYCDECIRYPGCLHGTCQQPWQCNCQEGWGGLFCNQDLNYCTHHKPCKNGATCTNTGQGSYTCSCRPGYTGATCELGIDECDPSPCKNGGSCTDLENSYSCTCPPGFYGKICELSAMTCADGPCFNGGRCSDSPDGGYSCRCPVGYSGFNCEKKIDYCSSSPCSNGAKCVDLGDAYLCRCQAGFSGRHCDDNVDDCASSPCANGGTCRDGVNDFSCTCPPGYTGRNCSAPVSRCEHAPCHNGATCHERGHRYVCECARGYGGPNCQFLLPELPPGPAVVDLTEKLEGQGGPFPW


What was measured:
human DLL1 = target: T1, human DLL1; assay: ELISA, coated human DLL1
Description: (§1) Absence of binding to homologous ligands human DLL1 and human Jagged-1 is assessed via solid phase binding assay (ELISA). In brief, human DLL1 (Alexis, San Diego, Calif., USA) and human Jagged-1 (Alexis, San Diego, Calif., USA) are coated overnight at 4° C. at 1 μg/mL in a 96-well MaxiSorp plate (Nunc, Wiesbaden, Germany). Wells are blocked with a casein solution (1% in PBS). VHHs are applied as dilution series and binding is detected using a mouse anti-myc (Roche) and an anti-mouse-AP conjugate (Sigma, St. Louis, Mo., USA).

human Jagged-1 = target: T2, human Jagged-1 (human, UniProt P78504 34-1067, limits assumed); assay: ELISA, coated human Jagged-1
T2 construct: also called hJagged-1; hJAG1
Description: as §1

recombinant human DLL4 [1] = target: T3, recombinant human DLL4 (human, UniProt Q9NR61 25-522); assay: binding ELISA, coated rhDLL4
T3 construct: also called rhDLL4; hDLL4
Description: (§2) In order to determine cross-reactivity to mouse DII4 a binding ELISA is performed. […] Wells are blocked with a casein solution (1% in PBS). VHHs are applied as dilution series and binding is detected using a mouse anti-myc (Roche) and an anti-mouse-AP conjugate (Sigma, St Louis, Mo., USA) (FIG. 7 A-H). As reference, binding to human DII4 is measured.

recombinant mouse DLL4 = target: T4, recombinant mouse DLL4 (mouse, UniProt Q9JI71 27-532); assay: binding ELISA, coated rmDLL4
T4 construct: extracellular domain; also called rmDLL4; mDLL4
Description: as §2

recombinant human DLL4 [2] = target: T3, recombinant human DLL4; assay: Biacore off-rate, periplasmic extract
recombinant human DLL4 [3] = target: T3, recombinant human DLL4; assay: hDLL4 ELISA screen, periplasmic extract
[4] = target: T5, human DLL4 overexpressed on cells (human, UniProt Q9NR61 27-685); assay: competitive FMAT, hNotch1-Fc on CHO-hDLL4
T5 construct: full length human DLL4 on CHO or HEK293 cells; also called CHO-hDLL4; CHO-hDII4

recombinant human DLL4 [5] = target: T3, recombinant human DLL4; assay: competition AlphaScreen, biot-hDLL4/hNotch1-Fc; partial inhibitor
mouse VEGFR2-huFc = target: T6, mouse VEGFR2-huFc (mouse, UniProt P35918 20-762, limits assumed); assay: AlphaScreen, unlabelled mVEGF164 against biotinylated mVEGF164 on mVEGFR2-hFc
T6 construct: also called mVEGFR2-hFc; mVEGFR2-Fc
Description: Finally, streptavidin donor beads (20 μg/ml) are added and after 1 hour of incubation fluorescence is measured on the Envision microplate reader.

T4 sequence (Q9JI71 27-532): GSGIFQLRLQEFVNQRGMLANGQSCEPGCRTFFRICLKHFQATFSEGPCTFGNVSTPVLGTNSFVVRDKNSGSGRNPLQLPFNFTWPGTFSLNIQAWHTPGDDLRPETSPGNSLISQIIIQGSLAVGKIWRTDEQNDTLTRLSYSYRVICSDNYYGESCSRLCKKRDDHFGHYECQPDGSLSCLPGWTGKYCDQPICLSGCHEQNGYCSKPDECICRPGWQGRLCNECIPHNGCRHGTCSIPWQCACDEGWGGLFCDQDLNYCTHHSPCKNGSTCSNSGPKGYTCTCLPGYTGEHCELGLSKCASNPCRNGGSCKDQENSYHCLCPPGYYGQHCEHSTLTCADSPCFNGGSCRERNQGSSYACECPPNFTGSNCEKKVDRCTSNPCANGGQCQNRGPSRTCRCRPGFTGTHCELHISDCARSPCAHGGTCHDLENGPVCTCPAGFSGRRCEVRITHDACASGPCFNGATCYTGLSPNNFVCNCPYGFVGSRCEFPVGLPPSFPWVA
T6 sequence (P35918 20-762 limits assumed): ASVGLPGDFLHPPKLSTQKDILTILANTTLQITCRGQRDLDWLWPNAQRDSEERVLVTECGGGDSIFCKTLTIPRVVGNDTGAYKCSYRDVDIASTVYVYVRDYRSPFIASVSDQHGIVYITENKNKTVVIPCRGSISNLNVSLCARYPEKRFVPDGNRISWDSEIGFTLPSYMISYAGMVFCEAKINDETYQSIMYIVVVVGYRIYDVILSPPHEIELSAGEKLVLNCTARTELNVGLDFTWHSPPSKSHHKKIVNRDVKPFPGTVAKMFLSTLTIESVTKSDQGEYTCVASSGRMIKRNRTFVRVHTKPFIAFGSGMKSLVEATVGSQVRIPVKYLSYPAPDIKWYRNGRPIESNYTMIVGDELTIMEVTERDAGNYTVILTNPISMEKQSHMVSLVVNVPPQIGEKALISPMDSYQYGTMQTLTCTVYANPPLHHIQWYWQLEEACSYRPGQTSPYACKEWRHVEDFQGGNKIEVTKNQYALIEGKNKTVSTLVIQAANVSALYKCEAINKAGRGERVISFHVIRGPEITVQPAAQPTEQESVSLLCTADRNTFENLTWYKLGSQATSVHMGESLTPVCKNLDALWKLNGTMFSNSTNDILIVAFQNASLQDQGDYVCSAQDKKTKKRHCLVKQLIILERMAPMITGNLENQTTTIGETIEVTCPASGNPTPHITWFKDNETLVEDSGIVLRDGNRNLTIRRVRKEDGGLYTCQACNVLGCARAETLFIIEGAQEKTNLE

| binding result (human DLL1) | binding result (human Jagged-1) | EC50 (recombinant human DLL4 [1]) [nM] | EC50 (recombinant mouse DLL4) [nM] | koff (recombinant human DLL4 [2]) [s⁻¹] | % inh (recombinant human DLL4 [3]) [%] | IC50 [4] [nM] | IC50 (recombinant human DLL4 [5]) [nM] | IC50 (mouse VEGFR2-huFc) [nM] | Binder |
| --- | --- | --- | --- | --- | --- | --- | --- | --- | --- |
| no binding | no binding | 0.9 | 0.8 | 0.0011 | 98 | 33 | 0.05 |  | DLLBII19F04 (VHH) VHH: EVQLVESGGGLVQAEGSLRLSCAASGSTFSTYAMAWYRQAPGKQRELVAGISFDGSTHYAESVKGRFTISRDDAKNTVSLQMNSLKPEDAAVYYCYSVHPSTGFGSWGQGTQVTVSS |
|  |  |  |  |  |  |  |  | 0.05 | recombinant mouse VEGF164 (ligand, UniProt Q00731-2 27-190, looked up, biotinylated as the labelled ligand of the mVEGF164/mVEGFR2 AlphaScreen, also called mVEGF164; rmVEGF164) APTTEGEQKSHEVIKFMDVYQRSYCRPIETLVDIFQEYPDEIEYIFKPSCVPLMRCAGCCNDEALECVPTSESNITMQIMRIKPHQSQHIGEMSFLQHSRCECRPKKDRTKPENHCEPCSERRKHLFVQDPQTCKCSCKNTDSRCKARQLELNERTCRCDKPRR |

Reference: patent US20140120095A1 (Boehringer Ingelheim, published 2014)
